Measurements from patent US20240117030A1 (Pfizer, published 2024).
Changes are numbered by the printed parent chain. Each block holds one binder with its values, some of them ahead of it.

Legend:
Test in all cases: cell-based or functional assay
[1] = biological target: T1, human IL-33 mm2 Cys (human, UniProt O95760 112-270, limits assumed)
T1 sequence (looked up): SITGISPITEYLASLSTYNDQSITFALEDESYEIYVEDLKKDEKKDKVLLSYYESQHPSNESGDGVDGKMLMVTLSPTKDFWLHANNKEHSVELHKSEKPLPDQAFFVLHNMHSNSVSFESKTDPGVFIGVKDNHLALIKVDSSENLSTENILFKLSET

[2] = biological target: T2, recombinant human IL-33 (R&D Systems 3625-IL), reduced with DTT (human, UniProt O95760 112-270, limits assumed)
T2 sequence (looked up): T1 sequence (looked up) with S97C, S116C, S121C, S148C

[3] = biological target: recombinant human TSLP (glycosylated long form) (human, UniProt Q969D9 29-159)
[4] = biological target: recombinant human IL-13 (human, UniProt P35225 35-146)
[5] = biological target: T3, recombinant human IL-4 (human, UniProt P05112 25-153)
T3 sequence (looked up): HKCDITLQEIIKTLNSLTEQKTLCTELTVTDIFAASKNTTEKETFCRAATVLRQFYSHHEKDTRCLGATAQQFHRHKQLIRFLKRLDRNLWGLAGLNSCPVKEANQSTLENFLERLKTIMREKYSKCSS

[6] = biological target: recombinant human IL-13 (human, UniProt P35225 35-146); remark: listed apart in the source
[7] = biological target: T4, recombinant human IL-4 (human, UniProt P05112 25-153); remark: listed apart in the source
T4 sequence (looked up): T3 sequence (looked up)

B1: IL33-0216 (antibody, human IgG1, kappa, V domains shown)
VH: EVQLVESGGGLVQPGGSLRLSCAASGFTFSSYWMYWVRQAPGKGLEWVAAITPNAGEDYYPESVKGRFTISRDNAKNSLYLQMNSLRAEDTAVYYCARGHYYYTSYSLGYWGQGTLVTVSS
VL: DIQMTQSPSSLSASVGDRVTITCKASQNIDKHLDWYQQKPGKAPKLLIYFTNNLQTGVPSRFSGSGSGTDFTLTISSLQPEDFATYYCFQYNQGWTFGGGTKVEIKR
IC50 [pM] versus human IL-33 mm2 Cys (HEK-Blue SEAP) [1]: 237 pM
IC50 [pM] versus human reduced IL-33 (R&D), Experiment 1 (HEK-Blue SEAP) [2]: ~677 pM
IC50 [pM] versus human reduced IL-33 (R&D), Experiment 2 (HEK-Blue SEAP) [2]: ~1240 pM

B2: IL413TSLP-0001 (other)
heavy: EVTLRESGPALVKPTQTLTLTCTFSGFSLSNFGEGLSWIRQPPGKGLEWLAHIYWDDDKRYNPSLKSRLTISKDTSRNQVVLTMTNMDPVDTATYYCARRETVFYWYFDVWGQGTTVTVSSASTKGPSVFPEAPSSKSTSGGTAALGCLVKDYFPEPVTVSWNSGALTSGVHTFPAVLQSSGLYSLGSVVTVPSSSLGTQTYICNVNHKPSNTKVDKKVEPKSCDKTHTCPPCPAPEAAGAPSVFLFPPKPKDTLMISRTPEVTCVVVDVSHEDPEVKFNWYVDGVEVHNAKTKPREEQYNSTYRVVSVLTVLHQDWLNGKEYKCKVSNKALPAPIEKTISKAKGQPREPQVYTLPPCREEMTKNQVSLSCAVKGFYPSDIAVEWESNGQPENNYKTTPPVLDSDGSFFLVSKLTVDKSRWQQGNVFSCSVMHEALHNHYTQKSLSLSPGK
chain 1: QMQLVESGGGVVQPGRSLRLSCAASGFTFRTYGMHWVRQAPGKGLEWVAVIWYDGSNKHYADSVKGRFTITRDNSKNTLNLQMNSLRAEDTAVYYCARAPQWELVHEAFDIWGQGTMVTVSSGQPKAAPSVTLFPPSSEELQANKATLVCLISDFYPGAVTVAWKADSSPVKAGVETTTPSKQSNNKYAASSYLSLTPEQWKSHRSYSCQVTHEGSTVEKTVAPTECSGGGGSEVQLVESGGGLVQPGGSLRLSCAASGFTFSSYAMSWVRQAPGKGLEWVASISSGDTTYYPDSVKGRFTISRDNAKNSLYLQMNSLRAEDTAVYYCARNEGYYFGLTLWGQGTLVTVSSASTKGPSVFPKAPSSKSTSGGTAALGCLVKDYFPEPVTVSWNSGALTSGVHTFPAVLQSSGLYSLSSSVTVPSSSLGTQTYICNVNHKPSNTKVDKKVEPKSCDKTHTCPPCPAPEAAGAPSVFLFPPKPKDTLMISRTPEVTCVVVDVSHEDPEVKFNWYVDGVEVHNAKTKPREEQYNSTYRVVSVLTVLHQDWLNGKEYKCKVSNKALPAPIEKTISKAKGQPREPQVCTLPPSREEMTKNQVSLWCLVKGFYPSDIAVEWESNGQPENNYKTTPPVLDSDGSFFLYSKLTVDKSRWQQGNVFSCSVMHEALHNHYTQKSLSLSPGK
light 1: DIQMTQSPSSLSASVGDRVTITCKASQSVDEDGDSYMNWYQQKPGKAPKLLIYAASNLESGVPSRFSGSGSGTDFTLTISSLQPEDFATYYCQQSNEDPPTFGGGTKVEIKRTVAAPSVFIFPPSDEQLKSGTASVSCLLNNFYPREAKVQWKVDNALQSGNSQESVTEQDSKDSTYSLKSTLTLSKADYEKHKVYACEVTHQGLSSPVTKSFNRGEC
light 2: B2 light 1 with Q27E, E31H, D32F, D34W, Y36L, M37V, N38H, A54R, P100W, K180D
chain 2: SYVLTQPPSVSVAPGQTARITCGGNNLGSKSVHWYQQKPGQAPVLVVYDDSDRPSWIPERFSGSNSGNTATLTISRGEAGDEADYYCQVWDSSSDHVVFGGGTKLTVLASTKGPSVFPLAPSSKSTSGGTAALGCLVKDYFPEPVTVSWNSGALTSGVHTFPAVLQSSGLYSLSSVVTVPSSSLGTQTYICNVNHKPSNTKVDKKVEPKSC
a-TSLP TARC bioassay (IC50; pM) [3]: 12.6 pM
a-hIL-13 bioassay (IC50, pM) [4]: 47 pM
a-hIL-4 bioassay IC50, pM) [5]: 7.15 pM

B4: IL413TSLP-0002 (other)
heavy: EVQLVESGGGLVQPGGSLRLSCAASGFTFSSYAMSWVRQAPGKGLEWVASISSGDTTYYPDSVKGRFTISRDNAKNSLYLQMNSLRAEDTAVYYCARNEGYYFGLTLWGQGTLVTVSSASTKGPSVFPKAPSSKSTSGGTAALGCLVKDYFPEPVTVSWNSGALTSGVHTFPAVLQSSGLYSLSSSVTVPSSSLGTQTYICNVNHKPSNTKVDKKVEPKSCDKTHTCPPCPAPEAAGAPSVFLFPPKPKDTLMISRTPEVTCVVVDVSHEDPEVKFNWYVDGVEVHNAKTKPREEQYNSTYRVVSVLTVLHQDWLNGKEYKCKVSNKALPAPIEKTISKAKGQPREPQVCTLPPSREEMTKNQVSLWCLVKGFYPSDIAVEWESNGQPENNYKTTPPVLDSDGSFFLYSKLTVDKSRWQQGNVFSCSVMHEALHNHYTQKSLSLSPGK
chain 1: QMQLVESGGGVVQPGRSLRLSCAASGFTFRTYGMHWVRQAPGKGLEWVAVIWYDGSNKHYADSVKGRFTITRDNSKNTLNLQMNSLRAEDTAVYYCARAPQWELVHEAFDIWGQGTMVTVSSGQPKAAPSVTLFPPSSEELQANKATLVCLISDFYPGAVTVAWKADSSPVKAGVETTTPSKQSNNKYAASSYLSLTPEQWKSHRSYSCQVTHEGSTVEKTVAPTECSGGGGSEVTLRESGPALVKPTQTLTLTCTFSGFSLSNFGEGLSWIRQPPGKGLEWLAHIYWDDDKRYNPSLKSRLTISKDTSRNQVVLTMTNMDPVDTATYYCARRETVFYWYFDVWGQGTTVTVSSASTKGPSVFPEAPSSKSTSGGTAALGCLVKDYFPEPVTVSWNSGALTSGVHTFPAVLQSSGLYSLGSVVTVPSSSLGTQTYICNVNHKPSNTKVDKKVEPKSCDKTHTCPPCPAPEAAGAPSVFLFPPKPKDTLMISRTPEVTCVVVDVSHEDPEVKFNWYVDGVEVHNAKTKPREEQYNSTYRVVSVLTVLHQDWLNGKEYKCKVSNKALPAPIEKTISKAKGQPREPQVYTLPPCREEMTKNQVSLSCAVKGFYPSDIAVEWESNGQPENNYKTTPPVLDSDGSFFLVSKLTVDKSRWQQGNVFSCSVMHEALHNHYTQKSLSLSPGK
light 1: B2 light 1 with Q27E, E31H, D32F, D34W, Y36L, M37V, N38H, A54R, P100W, K180D
light 2: B2 light 1
chain 2: B2 chain 2
a-TSLP TARC bioassay (IC50; pM) [3]: 16.4 pM
a-hIL-13 bioassay (IC50, pM) [4]: 10.6 pM
a-hIL-4 bioassay IC50, pM) [5]: 8.59 pM

More lines, now with the values ahead:

IC50 (median), IL-13 induced CD23 expression on human monocytes [6]: 12.9 pM
IC50 (median), IL-4 induced CD23 expression on human monocytes [7]: 12.8 pM
B3: IL413TSLP-1028 (other)
heavy: not shown
chain 1: DIQMTQSPSSLSASVGDRVTITCKASESVDHFGWSLVHWYQQKPGKAPKLLIYRASNLESGVPSRFSGSGSGTDFTLTISSLQPEDFATYYCQQSNEDPWTFGGGTKVEIKRTVAAPSVFIFPPSDEQLKSGTASVVCLLNNFYPREAKVQWKVDNALQSGNSQESVTEQDSKDSTYSLSSTLTLSKADYEKHKVYACEVTHQGLSSPVTKSFNRGECGGGGSEVTLRESGPALVKPTQTLTLTCTFSGFSLSNFGEGLSWIRQPPGKGLEWLAHIYWDDDKRYNPSLKSRLTISKDTSRNQVVLTMTNMDPVDTATYYCARRETVFYWYFDVWGQGTTVTVSSASTKGPSVFPLAPSSKSTSGGTAALGCLVKDYFPEPVTVSWNSGALTSGVHTFPAVLQSSGLYSLSSVVTVPSSSLGTQTYICNVNHKPSNTKVDKKVEPKSCEKTHTCPPCPAPEAAGAPSVFLFPPKPKDTLMISRTPEVTCVVVDVSHEDPEVKFNWYVDGVEVHNAKTKPREEQYNSTYRVVSVLTVLHQDWLNGKEYKCKVSNKALPAPIEKTISKAKGQPREPQVYTLPPSREEMTKNQVSLTCEVKGFYPSDIAVEWESNGQPENNYKTTPPVLDSDGSFFLYSKLTVDKSRWQQGNVFSCSVLHEALHSHYTQKSLSLSPGK
light 1: SYVLTQPPSVSVAPGQTARITCGGNNLGSKSVHWYQQKPGQAPVLVVYDDSDRPSWIPERFSGSNSGNTATLTISRGEAGDEADYYCQVWDSSSKHVVFGGGTKLTVLGQPKAAPSVTLFPPSSEELQANKATLVCLISDFYPGAVTVAWKADSSPVKAGVETTTPSKQSNNKYAASSYLSLTPEQWKSHRSYSCQVTHEGSTVEKTVAPTECS
light 2: B2 light 1 with K24R, D32E, E97K, S137V, K180S
chain 2: EVQLVESGGGLVQPGGSLRLSCAASGFTFSSYAMSWVRQAPGKGLEWVASISSGDTTYYPDSVKGRFTISRDNAKNSLYLQMNSLRAEDTAVYYCARNEGYYFGLTLWGQGTLVTVSSASTKGPSVFPLAPSSKSTSGGTAALGCLVKDYFPEPVTVSWNSGALTSGVHTFPAVLQSSGLYSLSSVVTVPSSSLGTQTYICNVNHKPSNTKVDKKVEPKSC

IC50 (median), IL-13 induced CD23 expression on human monocytes [6]: 13.1 pM
IC50 (median), IL-4 induced CD23 expression on human monocytes [7]: 10.5 pM
B5: IL413TSLP-1037 (other)
heavy: not shown
chain 1: B3 chain 1
light 1: B3 light 1 with S51K, S92K, K95D
light 2: B2 light 1 with K24R, D32E, E97K, S137V, K180S
chain 2: B3 chain 2
